Numbered stars: 1 amine (or outer) side, 2 acyl side, 3 side chain; on linkers, the order of the positions; unused ones are H or OH. Bridge positions count the residues as written; N and C are the ends. Square brackets hold non-standard residues; d marks the D form. Ends that are not written are not given here. * marks the point of attachment. IDA = iminodiacetic acid, O=C(CN(CC(=O)[*:3])[*:1])[*:2]; β3hF = N[C@H](CC(=O)O)Cc1ccccc1; pGlu = O=C1CC[C@@H](C(=O)O)N1; β3hP = O=C(O)C[C@@H]1CCCN1; Isovaleryl = CC(C)CC(=O)*
B1: (isovaleric acid-DTHFPCIKF)2[Lys]K(iso-Glu-Palm)-NH2 (peptide)
peptide: DTHFPCIKF
modifications: N-terminal isovaleric acid on each subunit; the two subunits are joined at their C-termini through a [Lys] linker, which is followed by K(iso-Glu-Palm)-NH2
B2: (Isovaleric acid-DTHFPCIKF)2[Lys]-NH2 (peptide)
peptide: DTHFPCIKF
modifications: N-terminal isovaleric acid on each subunit; the two subunits are joined at their C-termini through a [Lys]-NH2 linker
B3: (isobutyric acid-DTHFPCIKF)2[Lys]K(iso-Glu-Palm)-NH2 (peptide)
peptide: DTHFPCIKF
modifications: N-terminal isobutyric acid on each subunit; the two subunits are joined at their C-termini through a [Lys] linker, which is followed by K(iso-Glu-Palm)-NH2
B4: Hy-DTHFPCIIFGPRSKGWNCK-NH2 (peptide)
peptide: H-DTHFPCIIFGPRSKGWNCK-NH2
modifications: not fully specified (bridges); printed as Hy-DTHFPCIIFGPRSKGWNCK-NH2; cysteine pairing not given here
B5: Hy-DTHFPCIIFGPRSRGHVCK-NH2 (peptide)
peptide: H-DTHFPCIIFGPRSRGHVCK-NH2
modifications: not fully specified (bridges); printed as Hy-DTHFPCIIFGPRSRGHVCK-NH2; cysteine pairing not given here
B6: Hy-[pGlu]-THFPCRKF-NH2 (peptide)
peptide: [pGlu]THFPCRKF-NH2
SMILES: C[C@@H](O)[C@H](NC(=O)[C@@H]1CCC(=O)N1)C(=O)N[C@@H](Cc1c[nH]cn1)C(=O)N[C@@H](Cc1ccccc1)C(=O)N1CCC[C@H]1C(=O)N[C@@H](CS)C(=O)N[C@@H](CCCNC(=N)N)C(=O)N[C@@H](CCCCN)C(=O)N[C@@H](Cc1ccccc1)C(N)=O
B7: (Isovaleric acid-DTHFPCIKF)2[Lys]-Lys(Palm)-NH2 (peptide)
peptide: DTHFPCIKF
modifications: N-terminal isovaleric acid on each subunit; the two subunits are joined at their C-termini through a [Lys] linker, which is followed by Lys(Palm)-NH2

These binders were tested against T1, human ferroportin (SLC40A1) fused in frame with GFP, stably expressed on HEK293 cells (human, UniProt Q9NP59 1-571) (assay: cell-based or functional assay).
T1 sequence (looked up): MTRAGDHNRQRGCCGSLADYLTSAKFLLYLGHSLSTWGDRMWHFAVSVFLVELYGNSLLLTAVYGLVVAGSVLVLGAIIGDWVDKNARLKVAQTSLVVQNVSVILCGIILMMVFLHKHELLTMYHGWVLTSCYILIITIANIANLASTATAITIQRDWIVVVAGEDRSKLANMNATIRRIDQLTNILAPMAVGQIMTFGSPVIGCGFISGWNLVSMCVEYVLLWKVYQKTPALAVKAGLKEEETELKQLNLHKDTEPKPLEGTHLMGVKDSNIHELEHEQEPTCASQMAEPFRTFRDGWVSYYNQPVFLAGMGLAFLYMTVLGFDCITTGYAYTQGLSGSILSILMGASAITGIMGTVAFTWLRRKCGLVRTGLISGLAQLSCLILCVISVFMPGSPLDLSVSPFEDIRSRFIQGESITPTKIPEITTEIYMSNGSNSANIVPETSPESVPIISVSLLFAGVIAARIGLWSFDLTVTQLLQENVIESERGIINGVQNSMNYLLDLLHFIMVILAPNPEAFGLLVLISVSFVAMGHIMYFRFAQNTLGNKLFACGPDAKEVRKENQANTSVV

Row | Binder | EC50 (nM) (n > 3), ferroportin internalization/degradation assay
1 | B1 | 14 nM
2 | Isovaleryl-DTHFPCIRFK-{K(γGlu-Palm)-NH2} (also: dimer: two subunits joined at C-termini through a Lys linker) [(Isovaleric acid-DTHFPCIRF)2[Lys]-K(iso-Glu-Palm)-NH2] | 4 nM
3 | B2 | 30 nM
4 | B3 | 24 nM

Target: T1, human ferroportin (SLC40A1) fused in …
Experiment: cell-based or functional assay
Remark: another data set of the same source

Row | Binder | Ferroportin internalization assay EC50 | percent at the stated concentration, ferroportin internalization assay
5 | H-DTHFPCIIFAC-NH2 (disulfide 6-11 (inferred)) [Hy-DTHFPCIIFAC-NH2] | > 1000 nM | –
6 | H-DTHFPCIIT-NH2 [Hy-DTHFPCIIT-NH2] | – | 23 % at 1 uM
7 | DTHFPCIIFXPRSKGWVC (N-terminal isovaleric acid; Sarc at 10; N-MeTrp at 16; C-terminal amide) [Isovaleric acid-DTHFPCIIF-[Sarc]-PRSKG[N-MeTrp]-VC-NH2] | 10 nM | –
8 | B4 | > 1000 nM | –
9 | H-DTHFPCILY-NH2 [Hy-DTHFPCILY-NH2] | – | 85 % at 1 uM
10 | H-DTHFPCIIY-NH2 [Hy-DTHFPCIIY-NH2] | – | 75 % at 10 uM
11 | H-ATHFPCIIF-NH2 [Hy-ATHFPCIIF-NH2] | > 1000 nM | –
12 | H-DTHFPCIIFAA-NH2 [Hy-DTHFPCIIFAA-NH2] | – | 59 % at 1 uM
13 | DTHFPCIIFXPHSKGWVC (N-terminal isovaleric acid; Sarc at 10; N-MeTrp at 16; C-terminal amide) [Isovaleric acid-DTHFPCIIF-[Sarc]-PHSKG[N-MeTrp]-VC-NH2] | 9 nM | –
14 | B5 | > 1000 nM | –
15 | H-DTHFPCIDFGPRSKGWVCK-NH2 (disulfide 6-18 (inferred)) [Hy-DTHFPCIDFGPRSKGWVCK-NH2] | > 1000 nM | –
16 | H-DTHKPCIIF-NH2 [Hy-DTHKPCIIF-NH2] | – | 45 % at 10 uM
17 | Isovaleryl-DTHFECIIFGPRSKGWVCK-NH2 (not fully specified (bridges); cysteine pairing not given here) [Isovaleric acid-DTHFECIIFGPRSKGWVCK-NH2] | > 1000 nM | –
18 | Isovaleryl-DTEFPCIKFEPRSKEWVCK-NH2 (disulfide 6-18 (inferred)) [Isovaleric acid-DTEFPCIKFEPRSKEWVCK-NH2] | > 1000 nM | –
19 | H-ADHFPCIIF-NH2 [Hy-ADHFPCIIF-NH2] | > 1000 nM | –
20 | H-DTHFVCIIF-NH2 [Hy-DTHFVCIIF-NH2] | – | 50 % at 10 uM
21 | H-DPHFPCIIF-NH2 [Hy-DPHFPCIIF-NH2] | – | 64 % at 10 uM
22 | H-DTHFPCINFGPRSKGWVCK-NH2 (disulfide 6-18 (inferred)) [Hy-DTHFPCINFGPRSKGWVCK-NH2] | > 1000 nM | –
23 | Isovaleryl-DTHFGCIKFEPRSKEWVCK-NH2 (not fully specified (bridges); cysteine pairing not given here) [Isovaleric acid-DTHFGCIKFEPRSKEWVCK-NH2] | > 1000 nM | –
24 | H-DTHFPCIEY-NH2 [Hy-DTHFPCIEY-NH2] | – | 8 % at 1 uM

Target: T1, human ferroportin (SLC40A1) fused in …
Experiment: cell-based or functional assay
Remark: another data set of the same source

Row | Binder | EC50 (nM), ferroportin internalization/degradation assay | percent at the stated concentration, ferroportin internalization/degradation assay
25 | H-DTHFPCAIF-NH2 [Hy-DTHFPCAIF-NH2] | > 1000 nM | –
26 | H-DTHFPCQIF-NH2 [Hy-DTHFPCQIF-NH2] | > 1000 nM | –
27 | [IDA]THF[β3hP]CRR[β3hF]GPRSKGWVC-NH2 (disulfide 6-18 (inferred)) [[IDA]-THF-[bhPro]-CRR-[bhPhe]GPRSKGWVC-NH2] | > 1000 nM | –
28 | Isovaleryl-DTHFPCRRFGPRSKGWVCK-NH2 (disulfide 6-18 (inferred)) [Isovaleric acid-DTHFPCRRFGPRSKGWVCK-NH2] | > 1000 nM | –
29 | H-DTHFPCRIF-NH2 [Hy-DTHFPCRIF-NH2, listing 1 of 2 here] | > 1000 nM | –
30 | H-DTHFPCLF-NH2 [Hy-DTHFPCLF-NH2] | – | 39 % at 1 uM
31 | H-DTHFPCIFGPRSKGWVC-NH2 (disulfide 6-17 (inferred)) [Hy-DTHFPCIFGPRSKGWVC-NH2] | > 1000 nM | –
32 | H-DTHFPCLIF-NH2 [Hy-DTHFPCLIF-NH2] | > 10000 nM | –
33 | H-DTHFPCRRF-NH2 [Hy-DTHFPCRRF-NH2] | > 10000 nM | –
34 | H-DTHFPCRIF-NH2 [Hy-DTHFPCRIF-NH2, listing 2 of 2 here] | – | 31 % at 10 uM
35 | H-DTHFPCEIF-NH2 [Hy-DTHFPCEIF-NH2] | > 1000 nM | –
36 | H-DTHFPCRF-NH2 [Hy-DTHFPCRF-NH2] | – | 31 % at 10 uM
37 | H-DTHFPCRIFGPRSRGWVCK-NH2 (disulfide 6-18 (inferred)) [Hy-DTHFPCRIFGPRSRGWVCK-NH2] | > 1000 nM | –
38 | H-DTHFPRRFGPRSKGWVC-NH2 [Hy-DTHFPRRFGPRSKGWVC-NH2] | > 1000 nM | –
39 | H-DTHFPCKIF-NH2 [Hy-DTHFPCKIF-NH2] | – | 9 % at 10 uM
40 | B6 | > 1000 nM | –
41 | H-DTHFPCVIF-NH2 [Hy-DTHFPCVIF-NH2] | – | 81 % at 10 uM

These binders were tested against T2, human ferroportin (SLC40A1) fused in frame with GFP, stably expressed in HEK293 cells (human, UniProt Q9NP59 1-571) (assay: cell-based or functional assay).
T2 sequence (looked up): T1 sequence (looked up)

Row | Binder | Potency EC50
42 | DTHFPCIKFKPRSKGWVCK (IVA (isovaleric acid) on the side chain of Lys 10; C-terminal amide) [Hy-DTHFPCIKF-K(IVA)-PRSKGWVCK-NH2] | > 500 nM
43 | H-DTHFPCIK(Isovaleryl)FGPRSKGWVCK-NH2 (disulfide 6-18 (inferred)) [Hy-DTHFPCI-K(IVA)-FGPRSKGWVCK-NH2] | > 500 nM

Target: T1, human ferroportin (SLC40A1) fused in …
Experiment: cell-based or functional assay
Remark: another data set of the same source

Row | Binder | EC50 (nM) (n > 3), ferroportin internalization/degradation assay
44 | B1 | 14 nM
45 | Isovaleryl-DTHFPCIRFK-{K(γGlu-Palm)-NH2} (also: dimer: two subunits joined at C-termini through a Lys linker) [(Isovaleric acid-DTHFPCIRF)2[Lys]-K(iso-Glu-Palm)-NH2] | 4 nM
46 | B2 | 30 nM
47 | B3 | 24 nM
48 | B7 | 16 nM
